Measured values: EP4755449A2 (CHUGAI SEIYAKU KABUSHIKI KAISHA, dated 2026)

T1: human latent myostatin (human, UniProt O14793 25-266; O14793 267-375)
T1 construct: non-covalent complex of two propeptides and the mature homodimer; also called human myostatin latent form
T1 sequence 1: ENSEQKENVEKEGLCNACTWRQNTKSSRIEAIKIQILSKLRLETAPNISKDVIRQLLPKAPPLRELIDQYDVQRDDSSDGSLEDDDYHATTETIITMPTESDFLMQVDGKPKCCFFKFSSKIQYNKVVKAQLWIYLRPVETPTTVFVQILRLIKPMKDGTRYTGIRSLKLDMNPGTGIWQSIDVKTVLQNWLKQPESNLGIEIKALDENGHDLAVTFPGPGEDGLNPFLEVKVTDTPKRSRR
T1 sequence 2: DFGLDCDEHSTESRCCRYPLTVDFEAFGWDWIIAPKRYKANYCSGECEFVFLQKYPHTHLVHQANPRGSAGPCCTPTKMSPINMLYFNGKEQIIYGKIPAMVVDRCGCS

T2: human Fc gamma RIIb extracellular domain, His-tagged (human, UniProt P31994 43-217)
T2 construct: also called FcgRIIb
T2 sequence: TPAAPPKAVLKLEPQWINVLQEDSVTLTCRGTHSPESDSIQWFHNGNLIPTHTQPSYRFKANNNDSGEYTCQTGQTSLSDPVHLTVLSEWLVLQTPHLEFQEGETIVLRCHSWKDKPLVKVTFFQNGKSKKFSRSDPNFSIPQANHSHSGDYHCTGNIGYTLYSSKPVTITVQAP

T3: cyno Fc gamma RIIb extracellular domain, His-tagged (cynomolgus monkey)
T3 construct: also called cynoFcgRIIb
T3 chain: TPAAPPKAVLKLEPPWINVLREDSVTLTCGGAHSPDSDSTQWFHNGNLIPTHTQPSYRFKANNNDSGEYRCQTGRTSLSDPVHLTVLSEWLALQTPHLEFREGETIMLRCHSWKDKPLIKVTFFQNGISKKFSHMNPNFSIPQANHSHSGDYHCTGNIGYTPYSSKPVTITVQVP


Tests used:
[1] = molecular target: T1, human latent myostatin; experiment: SPR affinity condition pH7.4 37C
[2] = molecular target: T1, human latent myostatin; experiment: SPR avidity condition pH7.4 37C; pH 7.4
[3] = molecular target: T1, human latent myostatin; experiment: SPR avidity condition pH5.8 37C; pH 5.8
[4] = molecular target: T2, human Fc gamma RIIb extracellular …; experiment: SPR 25C
[5] = molecular target: T3, cyno Fc gamma RIIb extracellular …; experiment: SPR 25C

Binder	Kd [1]	koff [1]	kon [1]	Kd [2]	koff [2]	kon [2]	Kd [3]	koff [3]	kon [3]	binding result [4]	binding result [5]
MS_M103205H707-SG1/M103202L802-SK1 (antibody, human IgG1, kappa, V domains shown, also called MS1032LO04-SG1) VH: QVTLKESGPVLVKPTETLTLTCTVSGIDLSHYDISWVRQAPGKGLEWVGIISYAGSTYYASWAKGRLTISKDTSKNQVVLTMTNMDPVDTATYYCARGVPAYSHGGDLWGQGTLVTVSS VL: DIVMTQSPATLSLSPGERATLSCTSSQSVYHDNWLSWFQQKPGQPPKLLIYWASTLAYGVPSRFSGSGSGTDFTLTISSLQPEDAATYYCAGGYGGGLYAFGQGTKVEIKR	0.812 nM	0.00125 s⁻¹	1.54e+06 M⁻¹ s⁻¹	0.163 nM	0.000217 s⁻¹	1.33e+06 M⁻¹ s⁻¹	9.13 nM	0.00713 s⁻¹	781000 M⁻¹ s⁻¹		
MS_M103205H781-SG1/M103202L813-SK1 (antibody, human IgG1, kappa, V domains shown, also called MS1032LO03-SG1) VH: QVTLKESGPVLVKPTETLTLTCTVSGIDLSHTDISWVRQAPGKGLEWVGIISYAGSTYYMSWAKGRLTISKDTSKNQVVLTMTNMDPVDTATYYCARGVPAYSHGGDLWGQGTLVTVSS VL: DIVMTQSPATLSLSPGERATLSCQTSQSVYHDNWLSWFQQKPGQPPKLLIYWASTLASGVPSRFSGSGSGTDFTLTISSLQPEDAATYYCAGGYGGGRYAFGQGTKVEIKR	1.08 nM	0.00117 s⁻¹	1.08e+06 M⁻¹ s⁻¹	0.196 nM	0.000192 s⁻¹	981000 M⁻¹ s⁻¹	9.66 nM	0.00524 s⁻¹	543000 M⁻¹ s⁻¹		
M103205H795-SG1 S239V/M103202L889-SK1 (antibody, human IgG1, kappa, copies: 2 + 2) heavy: not shown light: DIVMTQSPATLSLSPGERATLSCTSSQSVYHANWLSWFQQKPGQPPKLLIYWASTLAYGVPSRFSGSGSGTDFTLTISSLQPEDAATYYCAGGYGGGRYAFGQGTKVEIKRTVAAPSVFIFPPSDEQLKSGTASVVCLLNNFYPREAKVQWKVDNALQSGNSQESVTEQDSKDSTYSLSSTLTLSKADYEKHKVYACEVTHQGLSSPVTKSFNRGEC										binds	binds

Continued, values first:

Kd [1]	koff [1]	kon [1]	Kd [2]	koff [2]	kon [2]	Kd [3]	koff [3]	kon [3]	binding result [4]	binding result [5]	Binder
1.64 nM	0.00179 s⁻¹	1.08e+06 M⁻¹ s⁻¹	0.298 nM	0.000249 s⁻¹	836000 M⁻¹ s⁻¹	24.3 nM	0.0414 s⁻¹	1.7e+06 M⁻¹ s⁻¹			MS_M103205H781-SG1/M103202L719-SK1 (antibody, human IgG1, kappa, V domains shown, also called MS1032LO02-SG1) VH: QVTLKESGPVLVKPTETLTLTCTVSGIDLSHTDISWVRQAPGKGLEWVGIISYAGSTYYMSWAKGRLTISKDTSKNQVVLTMTNMDPVDTATYYCARGVPAYSHGGDLWGQGTLVTVSS VL: DIVMTQSPATLSLSPGERATLSCQSSQSVYHNNWLSWFQQKPGQPPKLLIYWASTLAFGVPSRFSGSGSGTDFTLTISSLQPEDAATYYCAGGYGGGLYAFGQGTKVEIKR
									binds	binds	M103205H795-SG1 S267A/M103202L889-SK1 (antibody, human IgG1, kappa, copies: 2 + 2) heavy: not shown light: DIVMTQSPATLSLSPGERATLSCTSSQSVYHANWLSWFQQKPGQPPKLLIYWASTLAYGVPSRFSGSGSGTDFTLTISSLQPEDAATYYCAGGYGGGRYAFGQGTKVEIKRTVAAPSVFIFPPSDEQLKSGTASVVCLLNNFYPREAKVQWKVDNALQSGNSQESVTEQDSKDSTYSLSSTLTLSKADYEKHKVYACEVTHQGLSSPVTKSFNRGEC
									binds	binds	M103205H795-SG1 S298L/M103202L889-SK1 (antibody, human IgG1, kappa, copies: 2 + 2) heavy: not shown light: DIVMTQSPATLSLSPGERATLSCTSSQSVYHANWLSWFQQKPGQPPKLLIYWASTLAYGVPSRFSGSGSGTDFTLTISSLQPEDAATYYCAGGYGGGRYAFGQGTKVEIKRTVAAPSVFIFPPSDEQLKSGTASVVCLLNNFYPREAKVQWKVDNALQSGNSQESVTEQDSKDSTYSLSSTLTLSKADYEKHKVYACEVTHQGLSSPVTKSFNRGEC
